Data reported in US12024544B2, “CCN3 and CCN3 peptides and analogs thereof for therapeutic use” (Rosalind Franklin University of Medicine & Science, priority 2010, dated 2024).
Entries after “also recorded” stand apart in the source; their conditions may differ.

Assays:
CCN2 receptor = experiment: adhesion of mesangial cells to CCN2 coated plates; assay type: cell-based, rat; conditions: 27 nM, rodent mesangial cells
Excerpt: The peptides selected above, and shown in FIG. 5, were synthesized and tested in the three different in vitro assays constructed to model fibrosis, or fibrosis-related pathology in vivo for anti-fibrotic activity. These assays have been used extensively by us and by others, and are highly predictive of related responses in vivo, including those occurring in humans. One in vitro assay, i.e., of cell adhesion in vitro was used. There is a requirement for adhesion in wound healing and fibrosis, with cells responding to the binding of CCN2 to their receptors for other critical activities. Also alteration of cell attachment and receptor binding is implicated in other non-fibrotic diseases, previously named in this application. For this adhesion assay, a well of a culture plate was coated with CCN2 protein and then rat mesangial cells were added for a defined period. […] After a standard period of incubation, the cells are washed to remove non-attached cells. These adherent cells are then removed and counted to determine the percent of the total cells that adhered. The ability of each peptide to block this binding was examined by preincubating cells with the peptide of interest. Controls were used for comparison without CCN2 coating.

human skin fibroblasts = experiment: human skin fibroblast proliferation; assay type: cell-based
Excerpt: (§1) To test this we used a cell culture model of skin healing/scarring, which employed the use of primary human skin fibroblasts derived from foreskins collected post circumcision. These have been used extensively in the past to grown in culture and treated with agents that are known to drive wound healing and or scarring. We were also interested in a rare form of skin fibrosis/scarring that can lead to systemic disease and death known as nephrogenic systemic fibrosis (NSF). NSF is a complication of NMR diagnostics in renal impaired patients, where gadolinium (GAD), a heavy metal, is used as a contrast agent, but in some cases appears to deposit in skin. Although the mechanism for development of skin fibrosis and subsequent systemic disease is not yet completely understood, we have developed a model that has allowed elucidation of the probable pathway to skin fibrosis (Bhagavathula, N., M. K. Dame, M. DaSilva, W. Jenkins, M. N. Aslam, P. Perone and J. Varani (2010)). “Fibroblast response to gadolinium: role for platelet-derived growth factor receptor.” Invest Radiol 45(12): 769-777). This disease is characterized as a hyperproliferative disease, and in our model it was shown that PDGF produced by resident skin fibroblasts are stimulated by GAD to increase their production of PDGF which acts to induce proliferation and the increased production of MMPs, regulators of ECM breakdown and thus turnover, including the major MMP, MMP-1. At the same time tissue inhibitors of MMPs (TIMPs) are also affected by exposure to GAD. […] It appears that local fibroblasts then respond to this increased TGF-beta by increasing their production of ECM, including predominantly collagen type 1.
(§2) We examined the role of CCN3 and CCNp in fibroproliferative/fibrotic responses in human dermal fibroblasts exposed to Omniscan, one of the gadolinium-based contrast agents associated with development of nephrogenic systemic fibrosis. These studies were carried out as we have previously described (Riser, B. L., N. Bhagavathula, P. Perone, K. Garchow, Y. Xu, G. J. Fisher, F. Najmabadi, D. Attili and J. Varani (2012)). “Gadolinium-induced fibrosis is counter-regulated by CCN3 in human dermal fibroblasts: a model for potential treatment of nephrogenic systemic fibrosis.” J Cell Commun Signal 6(2): 97-105.). In our studies, human dermal fibroblasts were exposed to Omniscan; or to PDGF and TGF-β1 as controls. Cellular proliferation was assessed along with MMP-1 (by ELISA and gelatin zymography), TIMP-1 (by ELISA) and COL1 (by ELISA) in the absence and presence of CCN3 and CCNp. CCN3 and CCNp38 was added to cells at 10 nM concentration and at the same time as PDGF. In parallel, CCN3 production was assessed in control and Omniscan-treated cells. In most case the results shown (each bar) are the mean of 3-5 separate experiments, using fibroblasts from different donors. CCN3 was produced in our laboratory from the human embryonic kidney cell line (HEK-293) transfected with the complete human CCN3 gene, and producing an approximate 55 kDa, full-length CCN3 product. A second source of CCN3 was obtained from Pepro Tech Corporation (Rocky Hill, NJ) and is produced in a prokaryote cell line.
Next we created and tested for efficacy, additional CCNp including those with the cysteines intact (native sequence) from CCNp37 and CCNp38 and those that were modified by either shortening the peptide by 1 or 2 amino acids or lengthening by one amino acid. These agents were added to human skin fibroblasts in increasing concentrations from 1 nM to 100 nM and compared to the equal concentration of CCN3 (SEQ. ID. NO: 67). They were added just prior to the addition of either TGF-beta or PDGF, depending on the experiment.

TIMP-1 = TIMP-1 production by human skin fibroblasts; assay type: cell-based
Excerpt: as §1, §2
Next we created and tested for efficacy, additional CCNp including those with the cysteines intact (native sequence) from CCNp37 and CCNp38 and those that were modified by either shortening the peptide by 1 or 2 amino acids or lengthening by one amino acid. […]

pro-collagen type 1 = pro-collagen type 1 production by human skin fibroblasts; assay type: cell-based; conditions: TGF-beta, 10 nM, FIG. 21
Excerpt: To test this we used a cell culture model of skin healing/scarring, which employed the use of primary human skin fibroblasts derived from foreskins collected post circumcision. These have been used extensively in the past to grown in culture and treated with agents that are known to drive wound healing and or scarring. We were also interested in a rare form of skin fibrosis/scarring that can lead to systemic disease and death known as nephrogenic systemic fibrosis (NSF). NSF is a complication of NMR diagnostics in renal impaired patients, where gadolinium (GAD), a heavy metal, is used as a contrast agent, but in some cases appears to deposit in skin. Although the mechanism for development of skin fibrosis and subsequent systemic disease is not yet completely understood, we have developed a model that has allowed elucidation of the probable pathway to skin fibrosis (Bhagavathula, N., M. K. Dame, M. DaSilva, W. Jenkins, M. N. Aslam, P. Perone and J. Varani (2010)). “Fibroblast response to gadolinium: role for platelet-derived growth factor receptor.” Invest Radiol 45(12): 769-777). This disease is characterized as a hyperproliferative disease, and in our model it was shown that PDGF produced by resident skin fibroblasts are stimulated by GAD to increase their production of PDGF which acts to induce proliferation and the increased production of MMPs, regulators of ECM breakdown and thus turnover, including the major MMP, MMP-1. At the same time tissue inhibitors of MMPs (TIMPs) are also affected by exposure to GAD. […]
We examined the role of CCN3 and CCNp in fibroproliferative/fibrotic responses in human dermal fibroblasts exposed to Omniscan, one of the gadolinium-based contrast agents associated with development of nephrogenic systemic fibrosis. […] Cellular proliferation was assessed along with MMP-1 (by ELISA and gelatin zymography), TIMP-1 (by ELISA) and COL1 (by ELISA) in the absence and presence of CCN3 and CCNp. […] In parallel, CCN3 production was assessed in control and Omniscan-treated cells. […]

BTBR Ob/Ob mouse = BTBR Ob/Ob mouse as model of liver disease; assay type: in vivo; conditions: 8 weeks of treatment
Protocol: This was carried out using the BTBR Ob/Ob mouse strain that has a defective leptin receptor that results in increased appetite. As a result it rapidly gains weight over the control strain and becomes hyperglycemic at about one month of age, going on to develop renal disease resembling that in humans. This is regarded by some to be the rodent model best mirroring renal disease in humans as a complication of diabetes. Animals were treated with either rCCN3 (SEQ. ID. NO: 67) or CCNp38 (SEQ. ID. NO: 38) beginning at 9 weeks of age, when early renal disease has been documented. The disease was allowed to develop for 9 weeks, then treatment started. Mice were treated 3 times per week for 8 weeks. At 17 weeks, blood and urine were collected, and animals sacrificed with organ samples collected. The effect of treatment with either CCN3 (2 concentrations, 2 or 20× the circulating amounts) or mimic peptide (CCNp38, 2 concentrations, 20 or 200× the equivalent molar circulating concentration of CCN3) was tested. Assays to determine the effect of CCN3 or peptide on expression of target fibrosis genes and clinical pathology were determined using methods as previously described (Riser, Amer J Pathology 2009) and (McIntosh, L M, et al., Selective CCR2-targeted macrophage depletion ameliorates experimental mesangioproliferative glomerulonephritis, Clinical and Experimental Immunology, 2008, 155, 295-303).
Since a common complication of diabetes is fatty liver, hepatitis, NASH, and in some cases liver fibrosis, we used the BTBR Ob/Ob mouse experiments described above as a model of human liver disease to examine the possibility that CCN3 or more particularly CCNp peptides might provide a treatment to prevent, treat, or reverse the liver disease described above.

B1: CCN3: full-length recombinant human CCN3 protein (SEQ. ID. No. 67), commercial (Pepro Tech) or made in HEK-293 (protein)
chain: MQVAATQRCPPQCPGRCPATPPTCAPGVRAVLDGCSCCLVCARQRGESCSDLEPCDESSGLYCDRSADPSNQTGICTAVEGDNCVFDGVIYRSGEKFQPSCKFQCTCRDGQIGCVPRCQLDVLLPEPNCPAPRKVEVPGECCEKWICGPDEEDSLGGLTLAAYRPEATLGVEVSDSSVNCIEQTTEWTACSKSCGMGFSTRVTNRNRQCEMLKQTRLCMVRPCEQEPEQPTDKKGKKCLRTKKSLKAIHLQFKNCTSLHTYKPRFCGVCSDGRCCTPHNTKTIQAEFQCSPGQIVKKPVMVIGTCTCHTNCPKNNEAFLQELELKTTRGKM
With B1 the “inhibition of cellular adhesion to CCN2 coated plates” value (CCN2 receptor) was “some inhibition”, the “inhibition of PDGF-stimulated proliferation, comparison of modifications” value (human skin fibroblasts; 1 nM to 100 nM, FIGS. 22-24) was “dose-dependent efficacy” and the “reduction in PDGF-stimulated proliferation” value (“reduction” below) (human skin fibroblasts; 1 nM, FIG. 22) was “slightly decreased proliferation”. For the same molecule, the “reduction” value (human skin fibroblasts; 10 nM, FIG. 23) was 33%, the “reduction” value (human skin fibroblasts; 100 nM, FIG. 24) was 46% and the “block of PDGF-stimulated fibroblast proliferation” value (human skin fibroblasts; PDGF, 10 nM, FIG. 15) was “this stimulation is blocked”. For the same molecule, the “effect on baseline cell growth” value (human skin fibroblasts; TGF-beta (does not stimulate proliferation), FIG. 16) was “neither CCN3 (SEQ. ID. No. 67) nor CCNp38-3 (Seq. ID. No. 56) has an effect on baseline cell growth”, the “block of PDGF stimulated TIMP-1 production” value (TIMP-1; FIGS. 28-30) was “unable to block the increase in TIMP-1” and the “block of PDGF-induced increase in TIMP-1 production” value (TIMP-1; PDGF, 10 nM, FIG. 19) was “neither CCNp38-3 (Seq. ID. No. 56) nor CCN3 (SEQ. ID. No. 67) is able to block or reduce the increase in TIMP-1 production”. For the same molecule, the “effect on TIMP-1 production with TGF-beta” value (TIMP-1; TGF-beta (fails to stimulate), FIG. 20) was “neither CCNp38-3 nor CCN3 have an effect; also recorded: neither CCNp38-3 or CCN3 have an effect”, the “block of TGF-beta-induced increase in pro-collagen production” value (pro-collagen type 1) was “completely block the increase” and the “effect on increased liver weight” value (BTBR Ob/Ob mouse; FIG. 41) was “slightly reduces this increase”. For the same molecule, the “effect on increased liver mRNA levels for CCN2” value (BTBR Ob/Ob mouse; liver, two doses, FIG. 42) was “greatly reduces or blocks the increase in a dose-dependent manner” and the “effect on increased liver mRNA levels for Col1A2” value (BTBR Ob/Ob mouse; liver, two doses, FIG. 43) was “dose-dependently reduced, or blocked the increase in collagen expression; also recorded: reduced”.
